Data on one substance can be found in US20080286287A1.

In the assay the target is aggrecan. The assay can be described thus: solid-phase binding assay: aggrecan-coated wells, 10 ng/well IGFBP-2, detected with 125I-IGF-I.

“HBD-IGFBP-2 mutant (179PKKLRP184 mutated to 179PNNLAP184) (from UniProt P18065 37-325)” gave a reduction in binding (against native IGFBP-2) of 75%.
